We go through 1 molecule from patent US20260055143A1, “HIGH AFFINITY VARIANTS OF SH2 DOMAINS” (Axoiya Inc., priority 2023, published 2026).

The test addresses SLTI{pTyr}AQVQKA (Homo sapiens, UniProt Q13291). In words: Competitive ELISA, SH2D1B variants. It is filed as binding.

B1: SH2D1B: SH2D1B SH2 domain, SEQ ID 67 (protein, listed as Homo sapiens)
chain: YYHGRLTKQDCETLLLKEGVDGNFLLRDSESIPGVLCLCVSFKNIVYTYRIFREKHGYYRIQTAEGSPKQVFPSLKELISKFEKPNQGMVVHLLKPI
Consider B1, for which the change in affinity result reads like this: (superbinding grafts or the αA-2-Arg substitution) “could not be improved further”; (with either the sSrc or sFes graft) “no improvement in affinity”.
